Legend:
Hfq wt = Hfq wt (Escherichia coli, UniProt P0A6X3 1-102); assay: analytical ultracentrifugation
Hfq-NA = Hfq-NA (Escherichia coli, UniProt P0A6X3 1-102); assay: analytical ultracentrifugation

AAAAAAAAAAAAAAAAAA (ssRNA) [FAM-rA18]: binds (Hfq wt); binds (Hfq-NA).

From PMC3072145
